Reference: the supplement of paper PMC6379048
pEC50: −log10 of the molar value.

How the values were obtained:
Assay in all cases: EC50 of free RNA motif oligo competing protein binding to immobilised probe
CSNK2B = CSNK2B (UniProt P67870)
How it was run: (§1)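 HEK293-FT lysate (2.5 mg protein/well) was treated with free RNA oligos (0 nM to 30 μM) for 1 h at 4°C, then with the same oligos on NHS-Sepharose beads for 30 min at 4°C. Bound proteins were quantified by label-free LC-MS/MS relative to the control. EC50 came from a four-parameter log-logistic fit, and Kd is EC50 times a protein-dependent depletion factor.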

ERI3 = target: T1, ERI3 (UniProt O43414)
T1 sequence: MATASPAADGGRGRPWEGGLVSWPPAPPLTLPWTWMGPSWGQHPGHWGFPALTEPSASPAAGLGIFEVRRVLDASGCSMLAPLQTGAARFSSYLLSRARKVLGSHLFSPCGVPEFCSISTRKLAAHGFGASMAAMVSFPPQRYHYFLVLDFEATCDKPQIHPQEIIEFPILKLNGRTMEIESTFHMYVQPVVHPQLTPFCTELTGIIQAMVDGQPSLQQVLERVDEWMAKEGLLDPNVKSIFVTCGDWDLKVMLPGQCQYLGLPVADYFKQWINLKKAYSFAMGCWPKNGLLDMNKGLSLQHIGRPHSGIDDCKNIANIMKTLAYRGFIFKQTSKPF
How it was run: as §1

HNRNPR = target: T2, HNRNPR (UniProt O43390)
T2 sequence: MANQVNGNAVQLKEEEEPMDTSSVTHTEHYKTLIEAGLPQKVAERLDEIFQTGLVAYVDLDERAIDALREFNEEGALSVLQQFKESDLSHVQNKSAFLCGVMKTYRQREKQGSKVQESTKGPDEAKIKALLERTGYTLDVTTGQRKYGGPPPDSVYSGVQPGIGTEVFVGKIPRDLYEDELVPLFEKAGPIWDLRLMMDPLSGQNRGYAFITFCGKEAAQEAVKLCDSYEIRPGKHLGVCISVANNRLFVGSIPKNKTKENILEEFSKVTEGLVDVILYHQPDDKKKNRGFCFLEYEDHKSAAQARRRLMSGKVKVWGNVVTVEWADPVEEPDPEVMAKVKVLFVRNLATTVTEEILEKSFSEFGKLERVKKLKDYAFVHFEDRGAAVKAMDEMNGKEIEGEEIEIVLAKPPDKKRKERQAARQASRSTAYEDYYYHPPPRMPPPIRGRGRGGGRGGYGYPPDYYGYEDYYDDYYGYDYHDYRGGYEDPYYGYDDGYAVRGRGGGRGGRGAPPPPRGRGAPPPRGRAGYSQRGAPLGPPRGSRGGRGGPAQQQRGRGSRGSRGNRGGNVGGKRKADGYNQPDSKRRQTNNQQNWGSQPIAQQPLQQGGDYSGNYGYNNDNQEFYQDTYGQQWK
How it was run: as §1

IGF2BP1 = IGF2BP1 (UniProt Q9NZI8)
Chain of IGF2BP1 (Q9NZI8 whole entry): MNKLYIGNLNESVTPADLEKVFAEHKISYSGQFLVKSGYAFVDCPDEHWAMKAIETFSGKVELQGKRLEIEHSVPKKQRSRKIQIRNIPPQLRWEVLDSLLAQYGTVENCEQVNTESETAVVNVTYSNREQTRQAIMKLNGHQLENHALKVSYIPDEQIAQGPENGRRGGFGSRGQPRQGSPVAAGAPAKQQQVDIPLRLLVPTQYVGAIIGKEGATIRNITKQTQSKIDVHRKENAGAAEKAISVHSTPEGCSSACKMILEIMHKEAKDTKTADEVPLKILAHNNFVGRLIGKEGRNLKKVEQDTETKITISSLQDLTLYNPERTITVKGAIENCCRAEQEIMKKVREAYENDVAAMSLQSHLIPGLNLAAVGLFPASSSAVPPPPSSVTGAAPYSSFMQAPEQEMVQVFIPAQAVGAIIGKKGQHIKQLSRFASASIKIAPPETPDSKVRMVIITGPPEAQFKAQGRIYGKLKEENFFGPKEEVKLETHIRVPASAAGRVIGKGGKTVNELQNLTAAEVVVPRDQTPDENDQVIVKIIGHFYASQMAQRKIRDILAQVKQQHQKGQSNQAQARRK
How it was run: as §1

MRPL43 = MRPL43 (UniProt Q8N983)
How it was run: as §1

RPS10 = RPS10 (UniProt P46783)
How it was run: as §1

RPS12 = RPS12 (UniProt P25398)
How it was run: as §1

RPS18 = RPS18 (UniProt P62269)
How it was run: as §1

HNRNPM = target: T3, HNRNPM (UniProt P52272)
T3 sequence: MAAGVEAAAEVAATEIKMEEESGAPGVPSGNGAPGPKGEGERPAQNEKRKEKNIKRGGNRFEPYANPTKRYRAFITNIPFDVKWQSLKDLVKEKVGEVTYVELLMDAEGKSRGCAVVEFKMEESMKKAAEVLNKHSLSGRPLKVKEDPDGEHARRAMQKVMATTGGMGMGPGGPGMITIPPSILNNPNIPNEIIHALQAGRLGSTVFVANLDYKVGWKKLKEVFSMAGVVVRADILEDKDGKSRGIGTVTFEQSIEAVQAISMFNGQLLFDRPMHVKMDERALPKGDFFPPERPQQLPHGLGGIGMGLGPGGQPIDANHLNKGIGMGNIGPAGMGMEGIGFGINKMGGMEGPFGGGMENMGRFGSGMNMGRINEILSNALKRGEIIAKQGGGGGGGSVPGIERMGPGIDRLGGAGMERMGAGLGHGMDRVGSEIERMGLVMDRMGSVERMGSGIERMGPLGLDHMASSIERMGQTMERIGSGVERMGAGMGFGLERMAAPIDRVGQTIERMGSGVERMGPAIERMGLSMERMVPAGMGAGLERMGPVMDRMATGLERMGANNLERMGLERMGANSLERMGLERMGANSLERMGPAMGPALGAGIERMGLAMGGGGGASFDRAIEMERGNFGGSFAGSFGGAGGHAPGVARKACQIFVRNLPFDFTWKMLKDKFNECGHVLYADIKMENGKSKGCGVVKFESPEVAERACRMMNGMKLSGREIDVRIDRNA
How it was run: as §1

MRPS9 = MRPS9 (UniProt P82933)
How it was run: as §1

Chain of CSNK2B (P67870 whole entry): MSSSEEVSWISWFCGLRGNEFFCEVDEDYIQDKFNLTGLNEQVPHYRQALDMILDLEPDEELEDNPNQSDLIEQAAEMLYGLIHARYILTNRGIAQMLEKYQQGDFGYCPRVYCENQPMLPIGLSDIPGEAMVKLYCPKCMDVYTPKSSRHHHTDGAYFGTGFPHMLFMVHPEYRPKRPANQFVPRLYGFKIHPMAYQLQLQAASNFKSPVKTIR

## AAUAAA
CSNK2B
  pEC50: 5.45
ERI3
  pEC50: 5.70
HNRNPR
  pEC50: 5.55

## CUGUCCU
IGF2BP1
  pEC50: 5.43
MRPL43
  pEC50: 6.98
RPS10
  pEC50: 6.65
RPS12
  pEC50: 6.41
RPS18
  pEC50: 7.05

## UAUUUAU
HNRNPM
  pEC50: 5.17
MRPS9
  pEC50: 7.53
